For test [1], the target named is analytical polyclonal antibody obtained in Example 2. Nature of the test: SPR Biacore T100, immobilized polyclonal, 500 nM ISV. For orientation: SPR reads the build-up and loss of mass on a sensor chip optically.
For test [2], the target named is serum sample IHUS#B09032311A3. Description: ECL displacement assay, variant competes with tagged SEQ ID NO:1.
Test [3] has as its target serum sample IHUS#B09032311A20. The description is as above.
Test [4] has as its target serum sample IHUS#B09032311A1. The description is as above.
The target in test [5] is affinity purified antibody IHuP#002-001-ABL-08. Nature of the test: ECL bridging/competition assay, 10 ug/ml ISV vs tagged ISV.

B1: Nb4.1 (VHH)
VHH: EVQLVESGGGLVQPGGSLRLSCAASGSVFKINVMAWYRQAPGKGRELVAGIISGGSTSYADSVKGRFTISRDNAKNTLYLQMNSLRPEDTAVYYCAFITTESDYDLGRRYWGQGTLVTVSS
B1 displayed a Binding (RU) in test [1] of 51 RU.

B2: Nb6.2 (VHH)
VHH: EVQLVESGGGLVQPGGSLRLSCIASGLPFSTKSMGWFRQAPGKEREFVARISPGGTSRYYGDFVKGRFAISRDNAKNTTWLQMNSLKAEDTAVYYCASGERSTYIGSNYYRTNEYDYWGTGTQVTVSS
Turning to B2, the Binding (RU) in test [1] worked out at 39 RU.

B3: Nb3.10 (VHH)
VHH: EVQLVESGGGLVQAGGSLRLSCAASRSIGRLDRMGWYRHRPGEPRELVATITGGSSINYGDSVKGRFTISIDNSKNTVYLQMNSLRPEDTAVYYCNFNKYVTSRDTWGQGTLVTVSS
The molecule B3 displayed a Binding (RU) in test [1] of 91 RU.

B4: Nb3.11 (VHH)
VHH: EVQLVESGGGLVQPGGSLRLSCAASRSIGRLDRMGWYRHRPGEPRELVATITGGSSINYGDSVKGRFTISIDNSKNTVYLQMNSLKPEDTAVYYCNFNKYVTSRDTWGQGTLVTVSS
In turn, B4 registered a Binding (RU) in test [1] of 88 RU.

B5: Nb3.13 (VHH)
VHH: EVQLVESGGGLVQPGGSLRLSCAASRSIGRLDRMGWYRHRPGEPRELVATITGGSSINYGDSVKGRFTISIDNSKNTVYLQMNSLRPEDTAVYYCNFNKYVTSRDTWGQGTQVTVSS
In turn, B5 came in with a Binding (RU) in test [1] of 90 RU.

B6: Nb3.1 (VHH)
VHH: EVQLVESGGGLVQAGGSLRLSCAASRSIGRLDRMGWYRHRTGEPRELVATITGGSSINYGDFVKGRFTISIDNAKNTVYLQMNNLKPEDTAVYYCNFNKYVTSRDTWGQGTQVTVSS
B6 showed a Binding (RU) in test [1] of 2 RU.

B7: Nb3.12 (VHH)
VHH: EVQLVESGGGLVQAGGSLRLSCAASRSIGRLDRMGWYRHRPGEPRELVATITGGSSINYGDSVKGRFTISIDNSKNTVYLQMNSLRPEDTAVYYCNFNKYVTSRDTWGQGTQVTVSS
In test [1], B7 registered a Binding (RU) of 86 RU.

B8: Nb3.15 (VHH)
VHH: EVQLVESGGGSVQPGGSLRLSCAASRSIGRLDRMGWYRHRPGEPRELVATITGGSSINYGDSVKGRFTISIDNSKNTVYLQMNSLRPEDTAVYYCNFNKYVTSRDTWGQGTLVTVSS
In turn, B8 registered a Binding (RU) in test [1] of 22 RU.

B9: Nb3.14 (VHH)
VHH: EVQLVESGGGLVQPGGSLRLSCAASRSIGRLDRMGWYRHRPGEPRELVATITGGSSINYGDSVKGRFTISIDNSKNTVYLQMNSLRPEDTAVYYCNFNKYVTSRDTWGQGTLVQVSS
Molecule B9 showed a Binding (RU) in test [1] of 79 RU.

B10: Example 1C: wildtype VHH (SEQ ID NO: 23) (VHH)
VHH: EVQLVESGGGLVQAGGSLRLSCAASGRTFNNYAMGWFRRAPGKEREFVAAITRSGVRSGVSAIYGDSVKDRFTISRDNAKNTLYLQMNSLKPEDTAVYTCAASAIGSGALRRFEYDYSGQGTQVTVSS
B10: the % reduction in test [2] stood at 20%; in test [3], 53%; in test [4], 4%; in test [5], 7.3%. The ECLU confirmatory assay in test [2] amounted to 1780 ECLU; in test [3], 8680 ECLU; in test [4], 60 ECLU; in test [5] it was 2710 ECLU.

B11: Example 1C: (A14P, K83R, Q108L) (SEQ ID NO: 27) (VHH)
VHH: EVQLVESGGGLVQPGGSLRLSCAASGRTFNNYAMGWFRRAPGKEREFVAAITRSGVRSGVSAIYGDSVKDRFTISRDNAKNTLYLQMNSLRPEDTAVYTCAASAIGSGALRRFEYDYSGQGTLVTVSS
In the case of B11, the % reduction in test [2] is 93%; in test [3], 97%; in test [4], 8%; in test [5] it was 89.1%. Further, the ECLU confirmatory assay amounted to 156 ECLU in test [2], 628 ECLU in test [3], 57 ECLU in test [4] and 319 ECLU in test [5].

B12: Example 1C: (A14P, R39Q, K83R, T91Y, Q108L) (SEQ ID NO: 28) (VHH)
VHH: EVQLVESGGGLVQPGGSLRLSCAASGRTFNNYAMGWFRQAPGKEREFVAAITRSGVRSGVSAIYGDSVKDRFTISRDNAKNTLYLQMNSLRPEDTAVYYCAASAIGSGALRRFEYDYSGQGTLVTVSS
B12: the % reduction in test [2] worked out at 90%; in test [3] it was 97%; in test [4], 6%; in test [5] it was 91.4%. Moreover, the ECLU confirmatory assay was determined as 228 ECLU in test [2], 570 ECLU in test [3], 58 ECLU in test [4] and 251 ECLU in test [5].

B13: Example 1C: (K83R) (SEQ ID NO: 25) (VHH)
VHH: EVQLVESGGGLVQAGGSLRLSCAASGRTFNNYAMGWFRRAPGKEREFVAAITRSGVRSGVSAIYGDSVKDRFTISRDNAKNTLYLQMNSLRPEDTAVYTCAASAIGSGALRRFEYDYSGQGTQVTVSS
As for B13, the % reduction in test [2] amounted to 37%; in test [3], 63%; in test [4], 1%; in test [5] it was 15.7%. Also, the ECLU confirmatory assay in test [2] was 1400 ECLU; in test [3], 6910 ECLU; in test [4] it was 62 ECLU; in test [5], 2460 ECLU.

B14: Example 1C: (Q108L) (SEQ ID NO: 26) (VHH)
VHH: EVQLVESGGGLVQAGGSLRLSCAASGRTFNNYAMGWFRRAPGKEREFVAAITRSGVRSGVSAIYGDSVKDRFTISRDNAKNTLYLQMNSLKPEDTAVYTCAASAIGSGALRRFEYDYSGQGTLVTVSS
Take B14: the % reduction in test [2] amounted to 31%; in test [3] it was 62%; in test [4] it was 5%; in test [5] it was 13.2%. For the same molecule, the ECLU confirmatory assay in test [2] is 1530 ECLU; in test [3], 6990 ECLU; in test [4], 59 ECLU; in test [5], 2530 ECLU.

B15: Example 1C: (A14P) (SEQ ID NO: 24) (VHH)
VHH: EVQLVESGGGLVQPGGSLRLSCAASGRTFNNYAMGWFRRAPGKEREFVAAITRSGVRSGVSAIYGDSVKDRFTISRDNAKNTLYLQMNSLKPEDTAVYTCAASAIGSGALRRFEYDYSGQGTQVTVSS
Regarding B15, the % reduction in test [2] is 91%; in test [3], 96%; in test [4], 10%; in test [5], 90.8%. For the same molecule, the ECLU confirmatory assay in test [2] amounted to 205 ECLU; in test [3], 668 ECLU; in test [4], 56 ECLU; in test [5], 268 ECLU.

B16: Nb6.5 (VHH)
VHH: EVQLLESGGGLVQPGGSLRLSCAASGLPFSTKSMGWFRQAPGKGREFVSRISPGGTSRYYGDFVKGRFTISRDNSKNTLYLQMNSLRAEDTAVYYCASGERSTYIGSNYYRTNEYDYWGQGTLVTVSS
In the case of B16, in test [1], the Binding (RU) was 66 RU.

The values above are taken from patent publication US20140205597A1.
